US20200317768A1 (published 2020)

T1: Cynomolgus monkey latent myostatin (cynomolgus monkey, UniProt Q95J86 25-266; Q95J86 267-375)
T1 construct: Latent form = complex of two propeptides and the mature dimer; also called Cyno latent myostatin
T1 sequence 1: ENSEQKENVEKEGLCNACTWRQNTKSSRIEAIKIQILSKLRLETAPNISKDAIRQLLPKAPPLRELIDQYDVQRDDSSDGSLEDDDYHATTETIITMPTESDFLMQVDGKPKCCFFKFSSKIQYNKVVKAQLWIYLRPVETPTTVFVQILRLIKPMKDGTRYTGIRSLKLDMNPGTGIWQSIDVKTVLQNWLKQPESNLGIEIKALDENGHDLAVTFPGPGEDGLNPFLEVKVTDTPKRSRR
T1 sequence 2: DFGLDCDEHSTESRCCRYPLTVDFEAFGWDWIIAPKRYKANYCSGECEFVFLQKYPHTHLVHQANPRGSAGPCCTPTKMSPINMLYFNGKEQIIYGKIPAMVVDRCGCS

T2: Mouse latent myostatin (mouse, UniProt O08689 26-267; O08689 268-376)
T2 construct: Latent form = complex of two propeptides and the mature dimer
T2 sequence 1: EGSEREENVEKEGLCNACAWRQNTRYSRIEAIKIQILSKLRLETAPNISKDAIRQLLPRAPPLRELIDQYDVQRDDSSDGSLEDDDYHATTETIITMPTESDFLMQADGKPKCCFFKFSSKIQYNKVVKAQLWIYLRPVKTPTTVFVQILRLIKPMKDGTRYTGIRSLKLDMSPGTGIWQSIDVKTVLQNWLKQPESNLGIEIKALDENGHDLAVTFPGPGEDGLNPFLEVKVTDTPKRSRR
T2 sequence 2: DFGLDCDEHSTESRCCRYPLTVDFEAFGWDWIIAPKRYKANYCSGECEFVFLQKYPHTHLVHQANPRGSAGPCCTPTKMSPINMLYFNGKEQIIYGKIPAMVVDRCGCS

T3: Human latent myostatin (human, UniProt O14793 25-266; O14793 267-375)
T3 construct: also called human myostatin latent form
T3 sequence 1: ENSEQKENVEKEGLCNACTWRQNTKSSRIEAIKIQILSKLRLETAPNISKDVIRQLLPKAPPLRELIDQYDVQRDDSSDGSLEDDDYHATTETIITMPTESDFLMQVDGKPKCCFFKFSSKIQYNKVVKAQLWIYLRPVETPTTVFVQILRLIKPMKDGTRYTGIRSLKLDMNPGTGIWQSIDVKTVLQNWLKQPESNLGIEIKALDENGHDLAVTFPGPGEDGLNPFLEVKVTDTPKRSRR
T3 sequence 2: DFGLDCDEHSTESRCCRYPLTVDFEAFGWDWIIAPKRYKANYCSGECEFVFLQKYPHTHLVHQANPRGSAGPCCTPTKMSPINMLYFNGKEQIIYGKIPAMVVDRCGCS


Assays:
[1] = biological target: T1, Cynomolgus monkey latent myostatin; assay: SPR (BIACORE T200) 37C, pH 5.8, antibody captured by ProA/G
Method: (§1) ProA/G (Pierce) was immobilized onto all flow cells of a CM4 chip using an amine coupling kit (GE Healthcare). All antibodies and analytes were prepared in ACES pH7.4 or pH5.8 buffer containing 20 mM ACES, 150 mM NaCl, 1.2 mM CaCl₂, 0.05% TWEEN®) 20, 0.005% NaN₃. […] Human, cyno, and mouse latent myostatin was injected at 3.125 to 50 nM prepared by two-fold serial dilution, followed by dissociation. The sensor surface was regenerated each cycle with 10 mM Glycine HCl pH1.5. Binding affinity was determined by processing and fitting the data to a 1:1 binding model using BIACORE® T200 Evaluation software, version 2.0 (GE Healthcare).

Mouse latent myostatin = biological target: T2, Mouse latent myostatin; assay: SPR (BIACORE T200) 37C, pH 7.4, antibody captured by ProA/G
Method: as §1

Human latent myostatin [2] = biological target: T3, Human latent myostatin; assay: as above
Method: as §1

[3] = biological target: T1, Cynomolgus monkey latent myostatin; assay: as above
Method: as §1

[4] = biological target: T1, Cynomolgus monkey latent myostatin; assay: SPR 37C; KD pH 5.8 / KD pH 7.4
Method: as §1

Human latent myostatin [5] = biological target: T3, Human latent myostatin; assay: SPR (BIACORE T200) 37C, pH 5.8, antibody captured by ProA/G
Method: as §1

Human latent myostatin [6] = biological target: T3, Human latent myostatin; assay: SPR 37C; KD pH 5.8 / KD pH 7.4
Method: as §1

| Kd [1] [nM] | Kd (Mouse latent myostatin) [nM] | Kd (Human latent myostatin [2]) [nM] | Kd [3] [nM] | ratio of KD at pH 5.8/pH 7.4 [4] | Kd (Human latent myostatin [5]) [nM] | ratio of KD at pH 5.8/pH 7.4 (Human latent myostatin [6]) | Binder |
| --- | --- | --- | --- | --- | --- | --- | --- |
| 80.9 | 0.272 | 0.329 | 0.354 | 229 | – | – | MS_M103205H1186-SG1/M103202L889-SK1 (antibody, human IgG1, kappa, V domains shown, also called MS1032LO18-SG1) VH: QVTLKESGPVLVKPTETLTLTCTVSGIDLSHDDISWVRQAPGKGLEWVGIISYAGKKYYASWAKGRLTISKDTSKNQVVLTMTNMDPVDTATYYCARGVPAYSHGGDLWGQGTLVTVSS VL: DIVMTQSPATLSLSPGERATLSCTSSQSVYHANWLSWFQQKPGQPPKLLIYWASTLAYGVPSRFSGSGSGTDFTLTISSLQPEDAATYYCAGGYGGGRYAFGQGTKVEIKR |
| 31 | – | 0.257 | 0.309 | 100 | 52.3 | 204 | MS_M103245H795-SG1/M103202L1045-SK1 (antibody, human IgG1, kappa, V domains shown, also called MS1032LO21-SG1) VH: QVTLKESGPVLVKPTETLTLTCKVSGIDLSHDDISWVRQAPGKGLEWVSIISYAGSTYYASWAKGRLTISKDTSKNQVVLTMTNMDPVDTATYYCARGVPAYSHGGDLWGQGTLVTVSS VL: DIVMTQSPATLSLSPGERATLSCTTSQSVYHENWLSWFQQKPGQPPKLLIYWASTLAYGVPSRFSGSGSGTDFTLTISSLQPEDAATYYCAGGYGGGRYAFGQGTKVEIKR |
